Here are results for 66 substances from the array DNA melting data of Ke et al..

The series can be described thus: melting temperature; melt of duplexes. Particulars: sodium 0.0675 M; strand 1 µM.
“CGACGTGCCAAATGTGCTG+CAGCACATACGGCACGTCG (((((((((..((((((((+))))))))..)))))))))”: the Tm came out at 53.2 °C.

As for “CGACGTGCACGATGTGCTG+CAGCACATGCCGCACGTCG ((((((((...((((((((+))))))))...))))))))”, the Tm came to 44.4 °C.

For the substance “CGACGTGCAACATGTGCTG+CAGCACATCAAGCACGTCG ((((((((...((((((((+))))))))...))))))))”, the Tm was determined as 47.1 °C.

Turning to “CGACGTGCGTTATGTGCTG+CAGCACATACAGCACGTCG ((((((((..(((((((((+)))))))))..))))))))”, the Tm was determined as 53.3 °C.

Turning to “CGACGTGCGGGATGTGCTG+CAGCACATTCAGCACGTCG ((((((((.(.((((((((+)))))))).).))))))))”, the Tm was determined as 56.4 °C.

Take “CGACGTGCAAGATGTGCTG+CAGCACATGTCGCACGTCG ((((((((.(.((((((((+)))))))).).))))))))”: the Tm turned out to be 51.3 °C.

On to “CGACGTGCACGATGTGCTG+CAGCACATCCCGCACGTCG ((((((((..(((((((((+)))))))))..))))))))”, for which the Tm turned out to be 49.9 °C.

As for “CGACGTGCGTGATGTGCTG+CAGCACATCAGGCACGTCG ((((((((.((((((((((+)))))))))).))))))))”, the Tm worked out at 59.6 °C.

As to “CGACGTGCTTCATGTGCTG+CAGCACATCGTGCACGTCG ((((((((...((((((((+))))))))...))))))))”, the midpoint of thermal melting (Tm) worked out at 43.2 °C.

Regarding “CGACGTGCCATATGTGCTG+CAGCACATTCTGCACGTCG ((((((((...((((((((+))))))))...))))))))”, the Tm was determined as 48.8 °C.

On to “CGACGTGCACCATGTGCTG+CAGCACATGTTGCACGTCG (((((((((.(((((((((+))))))))).)))))))))”, for which the Tm was 55 °C.

For the substance “CGACGTGCATCATGTGCTG+CAGCACATCGTGCACGTCG (((((((((..((((((((+))))))))..)))))))))”, the Tm was 47.2 °C.

Take “CGACGTGCCTCATGTGCTG+CAGCACATGTGGCACGTCG (((((((((.(((((((((+))))))))).)))))))))”: the Tm came out at 59.8 °C.

Consider “CGACGTGCTGGATGTGCTG+CAGCACATTCTGCACGTCG ((((((((.(.((((((((+)))))))).).))))))))”, for which the Tm turned out to be 55.6 °C.

As for “CGACGTGCGTGATGTGCTG+CAGCACATTTTGCACGTCG ((((((((...((((((((+))))))))...))))))))”, the Tm came out at 50.7 °C.

“CGACGTGCAAGATGTGCTG+CAGCACATCGCGCACGTCG ((((((((..(((((((((+)))))))))..))))))))”: the Tm worked out at 58.4 °C.

As to “CGACGTGCTCAATGTGCTG+CAGCACATAAAGCACGTCG (((((((((..((((((((+))))))))..)))))))))”, the Tm was found to be 52.1 °C.

Consider “CGACGTGCTCGATGTGCTG+CAGCACATACAGCACGTCG (((((((((..((((((((+))))))))..)))))))))”, for which the Tm stood at 51.8 °C.

Consider “CGACGTGCGACATGTGCTG+CAGCACATGGCGCACGTCG (((((((((.(((((((((+))))))))).)))))))))”, for which the Tm amounted to 65.2 °C.

For the substance “CGACGTGCTCGATGTGCTG+CAGCACATGGCGCACGTCG ((((((((.(.((((((((+)))))))).).))))))))”, the Tm turned out to be 50.8 °C.

With “CGACGTGCCGCATGTGCTG+CAGCACATCTCGCACGTCG ((((((((...((((((((+))))))))...))))))))”, the Tm was 47.8 °C.

Take “CGACGTGCTCCATGTGCTG+CAGCACATGACGCACGTCG ((((((((..(((((((((+)))))))))..))))))))”: the Tm was 49.8 °C.

Regarding “CGACGTGCCGGATGTGCTG+CAGCACATGGTGCACGTCG ((((((((...((((((((+))))))))...))))))))”, the Tm was determined as 47 °C.

Turning to “CGACGTGCGCAATGTGCTG+CAGCACATTCAGCACGTCG ((((((((..(((((((((+)))))))))..))))))))”, the Tm stood at 53.1 °C.

Take “CGACGTGCCTAATGTGCTG+CAGCACATTAAGCACGTCG ((((((((.((((((((((+)))))))))).))))))))”: the Tm is 53.4 °C.

Turning to “CGACGTGCAGGATGTGCTG+CAGCACATGAAGCACGTCG ((((((((...((((((((+))))))))...))))))))”, the Tm was found to be 50.3 °C.

For “CGACGTGCCCCATGTGCTG+CAGCACATCACGCACGTCG ((((((((...((((((((+))))))))...))))))))”, the Tm turned out to be 45.7 °C.

For the substance “CGACGTGCGACATGTGCTG+CAGCACATCACGCACGTCG (((((((((..((((((((+))))))))..)))))))))”, the Tm came to 52.7 °C.

With “CGACGTGCTTGATGTGCTG+CAGCACATATGGCACGTCG ((((((((...((((((((+))))))))...))))))))”, the Tm stood at 51 °C.

“CGACGTGCATAATGTGCTG+CAGCACATGGGGCACGTCG ((((((((...((((((((+))))))))...))))))))”: the Tm stood at 51.2 °C.

With “CGACGTGCTGCATGTGCTG+CAGCACATCCAGCACGTCG ((((((((((.((((((((+)))))))).))))))))))”, the Tm amounted to 55.9 °C.

Consider “CGACGTGCTGGATGTGCTG+CAGCACATATAGCACGTCG (((((((((..((((((((+))))))))..)))))))))”, for which the Tm is 54.6 °C.

As for “CGACGTGCCAGATGTGCTG+CAGCACATGCCGCACGTCG ((((((((...((((((((+))))))))...))))))))”, the Tm was 49.5 °C.

For “CGACGTGCTATATGTGCTG+CAGCACATTAGGCACGTCG ((((((((...((((((((+))))))))...))))))))”, the Tm is 51.4 °C.

Regarding “CGACGTGCAGAATGTGCTG+CAGCACATGCGGCACGTCG ((((((((.(.((((((((+)))))))).).))))))))”, the Tm was found to be 54.4 °C.

As to “CGACGTGCGGGATGTGCTG+CAGCACATACCGCACGTCG ((((((((((.((((((((+)))))))).))))))))))”, the Tm came out at 63.1 °C.

Take “CGACGTGCAATATGTGCTG+CAGCACATACAGCACGTCG ((((((((..(((((((((+)))))))))..))))))))”: the Tm stood at 50.3 °C.

As for “CGACGTGCCCAATGTGCTG+CAGCACATCTAGCACGTCG ((((((((...((((((((+))))))))...))))))))”, the Tm is 48.8 °C.

On to “CGACGTGCGTCATGTGCTG+CAGCACATGAGGCACGTCG ((((((((.((((((((((+)))))))))).))))))))”, for which the Tm came to 60.7 °C.

For “CGACGTGCAGCATGTGCTG+CAGCACATACGGCACGTCG ((((((((.(.((((((((+)))))))).).))))))))”, the Tm turned out to be 49.3 °C.

As to “CGACGTGCCCGATGTGCTG+CAGCACATGGCGCACGTCG ((((((((.(.((((((((+)))))))).).))))))))”, the Tm is 53.3 °C.

Take “CGACGTGCCATATGTGCTG+CAGCACATCTCGCACGTCG ((((((((.(.((((((((+)))))))).).))))))))”: the Tm was 47.7 °C.

Regarding “CGACGTGCCTTATGTGCTG+CAGCACATCTAGCACGTCG ((((((((...((((((((+))))))))...))))))))”, the Tm came out at 48.1 °C.

“CGACGTGCGATATGTGCTG+CAGCACATATCGCACGTCG (((((((((((((((((((+)))))))))))))))))))”: the Tm was determined as 64.1 °C.

Turning to “CGACGTGCTCCATGTGCTG+CAGCACATGATGCACGTCG ((((((((..(((((((((+)))))))))..))))))))”, the Tm was 53.7 °C.

In the case of “CGACGTGCACAATGTGCTG+CAGCACATGCGGCACGTCG ((((((((...((((((((+))))))))...))))))))”, the Tm is 46.6 °C.

Consider “CGACGTGCATGATGTGCTG+CAGCACATGATGCACGTCG ((((((((((.((((((((+)))))))).))))))))))”, for which the Tm came to 56.8 °C.

Take “CGACGTGCGGCATGTGCTG+CAGCACATAAAGCACGTCG ((((((((...((((((((+))))))))...))))))))”: the Tm stood at 56 °C.

Take “CGACGTGCCCGATGTGCTG+CAGCACATATCGCACGTCG ((((((((...((((((((+))))))))...))))))))”: the Tm was 47.2 °C.

With “CGACGTGCTCTATGTGCTG+CAGCACATTACGCACGTCG ((((((((...((((((((+))))))))...))))))))”, the Tm amounted to 47.8 °C.

For the substance “CGACGTGCCCCATGTGCTG+CAGCACATACAGCACGTCG ((((((((...((((((((+))))))))...))))))))”, the Tm was 47.1 °C.

Regarding “CGACGTGCTGGATGTGCTG+CAGCACATATTGCACGTCG ((((((((...((((((((+))))))))...))))))))”, the Tm was determined as 50.9 °C.

Consider “CGACGTGCTATATGTGCTG+CAGCACATGAGGCACGTCG ((((((((...((((((((+))))))))...))))))))”, for which the Tm came out at 52 °C.

Turning to “CGACGTGCATTATGTGCTG+CAGCACATCGGGCACGTCG ((((((((...((((((((+))))))))...))))))))”, the Tm amounted to 47 °C.

With “CGACGTGCTACATGTGCTG+CAGCACATCTTGCACGTCG ((((((((.(.((((((((+)))))))).).))))))))”, the Tm was found to be 49.3 °C.

As to “CGACGTGCAAGATGTGCTG+CAGCACATTTTGCACGTCG ((((((((((.((((((((+)))))))).))))))))))”, the Tm is 57.3 °C.

For “CGACGTGCCTTATGTGCTG+CAGCACATAATGCACGTCG ((((((((.((((((((((+)))))))))).))))))))”, the Tm came to 53.7 °C.

On to “CGACGTGCGATATGTGCTG+CAGCACATGATGCACGTCG ((((((((...((((((((+))))))))...))))))))”, for which the melting temperature (Tm) turned out to be 53.8 °C.

On to “CGACGTGCGGGATGTGCTG+CAGCACATCCTGCACGTCG ((((((((.((((((((((+)))))))))).))))))))”, for which the Tm worked out at 62.6 °C.

For the substance “CGACGTGCCGCATGTGCTG+CAGCACATAGAGCACGTCG ((((((((...((((((((+))))))))...))))))))”, the Tm came out at 50.7 °C.

For the substance “CGACGTGCCATATGTGCTG+CAGCACATGAGGCACGTCG (((((((((..((((((((+))))))))..)))))))))”, the Tm amounted to 56.2 °C.

As for “CGACGTGCTTCATGTGCTG+CAGCACATCCGGCACGTCG ((((((((...((((((((+))))))))...))))))))”, the Tm stood at 47.8 °C.

“CGACGTGCGGTATGTGCTG+CAGCACATTTGGCACGTCG ((((((((...((((((((+))))))))...))))))))”: the Tm came to 49.9 °C.

Turning to “CGACGTGCTAAATGTGCTG+CAGCACATGATGCACGTCG ((((((((...((((((((+))))))))...))))))))”, the Tm was determined as 53.2 °C.

For “CGACGTGCGTTATGTGCTG+CAGCACATGTCGCACGTCG (((((((((..((((((((+))))))))..)))))))))”, the Tm is 55 °C.

“CGACGTGCTGCATGTGCTG+CAGCACATAACGCACGTCG ((((((((...((((((((+))))))))...))))))))”: the Tm was found to be 49.4 °C.

The term Tm denotes the temperature at which the thermal transition is half complete.
